According to patent US20100061996A1:
Values belong to the substance of their own block, whether it stands above or below them.

Tests used:
Assay in all cases: cell-based or functional assay
[1] = target: endogenous full-length hepsin on the surface of LnCaP-17 cells (human) (UniProt P05981)
[2] = target: full-length hepsin on the surface of LnCaP-34 cells (transfected full-length hepsin with C-terminal Flag tag plus endogenous hepsin) (human) (UniProt P05981)
[3] = target: pro-uPA (pro-urokinase-type plasminogen activator, single-chain zymogen form of uPA) (UniProt P00749)

endogenous full-length hepsin on the surface of LnCaP-17 cells (human), sequence (P05981 whole entry): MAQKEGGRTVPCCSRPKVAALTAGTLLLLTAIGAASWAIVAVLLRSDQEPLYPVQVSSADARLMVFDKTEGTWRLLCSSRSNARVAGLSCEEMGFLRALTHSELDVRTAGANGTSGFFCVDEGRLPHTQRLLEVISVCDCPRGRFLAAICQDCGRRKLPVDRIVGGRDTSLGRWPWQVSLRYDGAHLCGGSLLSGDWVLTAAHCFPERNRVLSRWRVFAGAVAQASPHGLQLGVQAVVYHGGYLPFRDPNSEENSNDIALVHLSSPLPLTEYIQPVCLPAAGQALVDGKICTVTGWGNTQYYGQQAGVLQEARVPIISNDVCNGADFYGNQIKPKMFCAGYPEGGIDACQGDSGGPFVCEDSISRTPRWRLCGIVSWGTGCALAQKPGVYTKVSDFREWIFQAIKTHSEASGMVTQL
full-length hepsin on the surface of LnCaP-34 cells (transfected full-length hepsin with C-terminal Flag tag plus endogenous hepsin) (human), sequence (P05981 whole entry): as above

Rate of pro-uPA activation per 10^6 cells, LnCaP-17, with 1 uM KD1 [1]: 0.2 nM uPA hr^-1 | Rate of pro-uPA activation per 10^6 cells, LnCaP-34, with 1 uM KD1 [2]: 0.2 nM uPA hr^-1
Substance: KD1, Kunitz domain-1 derived from HAI-1B (from UniProt O43278 246-303)

Rate of pro-uPA activation per 10^6 cells, LnCaP-17, control [3]: 2.4 nM uPA hr^-1
Substance: endogenous full-length hepsin on the surface of LnCaP-17 cells (from UniProt P05981 1-417) (enzyme)

Rate of pro-uPA activation per 10^6 cells, LnCaP-34, control [3]: 6.6 nM uPA hr^-1
Substance: full-length hepsin on the surface of LnCaP-34 cells (transfected full-length hepsin with C-terminal Flag tag plus endogenous hepsin) (from UniProt P05981 1-417) (enzyme)
